From US20070254316A1 (Johns Hopkins, published 2007)
Ends that are not written are not given here.

What was measured:
PSMA on LNCaP cells = target: T1, PSMA on LNCaP cells (human, UniProt Q04609 1-750); assay: phage binding to LNCaP cells, 10^8 PFU, BRASIL partitioning and titer
T1 construct: whole, on cells; Target is whole LNCaP cells; also called PSMA expressing LNCaP cells
Description: FIG. 6 depicts the binding of individual phage clones to PSMA expressing LNCaP cells. 1.3×10⁵ harvested LNCaP cells were incubated with 10⁸ PFU of each individual phage for 20 minutes. Cell-bound phage were isolated by BRASIL partitioning and titered. Phage clones contained peptide sequences as follows: R5-C6: SEQ ID NO:2; R4-C9: SEQ ID NO:5; R5-XC1: SEQ ID NO:1; R3-A4: SEQ ID NO:95.
(§1) Cell monolayers were washed several times in PBS, and finally incubated five minutes in PBS at 37° C. Cells were knocked free, pelleted, and suspended in RPMI 1640+1% FBS at a concentration of 10⁶ cells per milliliter. 10⁸ PFU from each clone were incubated with 100 μl of cells at 37° C. for 20 minutes while rotating. For competitive inhibition, purified xPSM or BSA were added to the cells along with phage, and a larger concentration of 10¹⁰ PFU was applied. The cells were then centrifuged through 200 μl of 9:1 dibutyl phthalate:cyclohexane, previously described as BRASIL portioning (Giordano, R. J. et al. (2001) Nat. Med. 7:1249-1253, incorporated herein by reference). The tube was then snap frozen in liquid nitrogen to isolate the cell pellet. The cell pellets were then resuspended in 200 μl of log phage ER2738 cells and phage allowed to infect 1 hour at room temperature. A small aliquot was taken to determine the number of phage bound by dilution titer.

[1] = target: T2, xPSM (extracellular portion of human PSMA, Tag-xPSM digested with enterokinase, no affinity tags) (human, UniProt Q04609 44-750); assay: phage ELISA on xPSM
T2 construct: extracellular domain; also called purified xPSM; soluble xPSM protein

[2] = target: T3, Tag-xPSM fusion target protein (human, UniProt Q04609 44-750); assay: phage ELISA; R3-A4 stands only in FIG. 5, where Tag-xPSM was immobilised
T3 construct: extracellular domain; they are put first here only as a guess from the type II topology; Made in Sf-9 cells; also called PSMA fusion protein
Excerpt: (§2) FIG. 5 depicts the binding of selected phage clones to purified extracellular PSMA. Tag-xPSM was immobilized on microtiter plates and targeted for binding with 10¹⁰ PFU of each individual phage. Bound phages were quantified by ELISA absorbance at 410 nm. R4-C9, R5-XC1, and R3-A4 bound with the following significance compared to insertless phage: p-value=0.005, 0.009, and 0.0001 respectively). Phage clones contained peptide sequences as follows: R5-C6: SEQ ID NO:2; R4-C9: SEQ ID NO:5; R5-XC1: SEQ ID NO:1; R3-A4: SEQ ID NO:95.
(§3) Target proteins were immobilized on 96 well tissue culture plates by incubation for 1-2 hours at room temperature or overnight at four degrees Celsius. Both phage and protein coated plate were blocked for 30 minutes with RPMI 1640+1% Bovine Serum Albumin (BSA) at room temperature. Phage were incubated with target in RPMI 1640+1% BSA for 1 hour at room temperature, wells were washed five times in PBS+0.05% Tween-20, and wells were incubated with 1:5000 HRP/anti-M13 monoclonal antibody (in PBS) for 1 hour. Wells were again washed five times in PBS+0.05% Tween-20, and signal detected by incubation in 1×ABTS Stock Solution (100 mg ABTS in 450 ml of 0.05 M Citric Acid, pH 4.0) and absorbance reading at 410 nm. […] Significance was calculated by two-tailed, two-sample equal variance test.

[3] = target: T3, Tag-xPSM fusion target protein; assay: phage ELISA, Tag-xPSM immobilised on microtiter plates, 10^10 PFU, absorbance at 410 nm
Excerpt: as §2, §3

[4] = target: T2, xPSM (extracellular portion of human …); assay: competition: 380 nM soluble PSMA (xPSM) against LNCaP cells for R5-XC1 phage, 500 nM BSA as control
Description: FIG. 7 depicts the specific blocking of LNCaP phage binding by soluble xPSM protein. 10¹⁰ R5-XC1 phage or the round one phage pool were allowed to bind LNCaP cells in the presence of 380 nM PSMA or 500 nM BSA.
as §1

T2 sequence (Q04609 44-750): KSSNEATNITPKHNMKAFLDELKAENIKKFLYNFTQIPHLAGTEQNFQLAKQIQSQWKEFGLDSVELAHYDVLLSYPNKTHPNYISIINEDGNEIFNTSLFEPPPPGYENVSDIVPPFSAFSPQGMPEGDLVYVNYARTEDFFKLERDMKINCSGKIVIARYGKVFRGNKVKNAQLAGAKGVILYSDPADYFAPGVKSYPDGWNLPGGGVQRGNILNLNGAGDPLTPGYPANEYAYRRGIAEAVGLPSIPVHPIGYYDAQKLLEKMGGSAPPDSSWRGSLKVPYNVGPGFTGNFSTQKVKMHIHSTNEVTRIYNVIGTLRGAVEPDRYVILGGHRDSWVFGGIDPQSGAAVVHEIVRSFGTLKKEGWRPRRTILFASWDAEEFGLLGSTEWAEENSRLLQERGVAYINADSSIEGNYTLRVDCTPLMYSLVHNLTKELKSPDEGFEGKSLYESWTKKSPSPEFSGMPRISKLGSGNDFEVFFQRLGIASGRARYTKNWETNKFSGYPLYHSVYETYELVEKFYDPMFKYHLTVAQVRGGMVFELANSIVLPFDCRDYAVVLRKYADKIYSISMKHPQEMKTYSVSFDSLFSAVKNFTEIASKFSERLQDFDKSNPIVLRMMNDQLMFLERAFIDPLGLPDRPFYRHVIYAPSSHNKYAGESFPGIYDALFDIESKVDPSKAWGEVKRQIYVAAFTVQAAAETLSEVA
T1 sequence (Q04609 whole entry): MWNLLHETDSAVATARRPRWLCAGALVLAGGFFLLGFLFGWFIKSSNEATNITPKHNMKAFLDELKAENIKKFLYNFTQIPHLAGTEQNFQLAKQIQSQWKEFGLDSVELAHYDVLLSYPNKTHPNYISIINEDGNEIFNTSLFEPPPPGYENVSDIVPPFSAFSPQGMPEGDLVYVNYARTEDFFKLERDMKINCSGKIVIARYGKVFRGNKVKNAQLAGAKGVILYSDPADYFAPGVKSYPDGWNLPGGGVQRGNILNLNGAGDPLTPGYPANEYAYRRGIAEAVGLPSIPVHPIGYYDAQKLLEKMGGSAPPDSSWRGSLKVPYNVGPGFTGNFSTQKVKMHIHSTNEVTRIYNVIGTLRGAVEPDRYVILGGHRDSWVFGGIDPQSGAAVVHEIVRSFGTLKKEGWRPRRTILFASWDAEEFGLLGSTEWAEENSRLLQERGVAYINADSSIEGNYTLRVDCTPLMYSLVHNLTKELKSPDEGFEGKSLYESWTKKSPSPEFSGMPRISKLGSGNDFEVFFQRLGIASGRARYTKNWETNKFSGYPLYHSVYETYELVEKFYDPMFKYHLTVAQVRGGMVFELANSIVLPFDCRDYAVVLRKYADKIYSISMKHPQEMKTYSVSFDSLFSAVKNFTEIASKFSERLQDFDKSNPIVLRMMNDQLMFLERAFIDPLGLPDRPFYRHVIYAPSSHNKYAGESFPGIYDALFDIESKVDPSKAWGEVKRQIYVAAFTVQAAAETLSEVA
T3 sequence (Q04609 44-750): as the sequence (Q04609 44-750) above

| Binder | binding result (PSMA on LNCaP cells) | binding result [1] | further results |
| --- | --- | --- | --- |
| CTITSKRTC (not fully specified (bridges); cysteine pairing not given here; also: displayed on M13 phage pIII coat protein, Disulfide-constrained heptapeptide flanked by cysteines, tested as whole phage; not shown: pIII coat protein of M13 filamentous bacteriophage (New England Biolabs CX7C library); junction between peptide and pIII) [R5-C6 phage (M13 phage displaying CTITSKRTC)] | binds | binds |  |
| CTPQSSDRC (not fully specified (bridges); cysteine pairing not given here; also: displayed on M13 phage pIII coat protein, Tested as whole phage; not shown: pIII coat protein of M13 filamentous bacteriophage (New England Biolabs CX7C library); junction between peptide and pIII) [SEQ ID NO 107 phage (M13 phage displaying CTPQSSDRC)] |  | binds |  |
| CPSVNTKQC (not fully specified (bridges); cysteine pairing not given here; also: displayed on M13 phage pIII coat protein, Tested as whole phage; also called R5-C11; not shown: pIII coat protein of M13 filamentous bacteriophage (New England Biolabs CX7C library); junction between peptide and pIII) [SEQ ID NO 9 phage (M13 phage displaying CPSVNTKQC)] |  | binds |  |
| CFPQSSARC (not fully specified (bridges); cysteine pairing not given here; also: displayed on M13 phage pIII coat protein, Disulfide-constrained heptapeptide flanked by cysteines, tested as whole phage; not shown: pIII coat protein of M13 filamentous bacteriophage (New England Biolabs CX7C library); junction between peptide and pIII) [R3-A4 phage (M13 phage displaying CFPQSSARC)] | binds |  | binding result [2]: binds |
| CQVRHSAQC (not fully specified (bridges); cysteine pairing not given here; also: displayed on M13 phage pIII coat protein, Tested as whole phage; not shown: pIII coat protein of M13 filamentous bacteriophage (New England Biolabs CX7C library); junction between peptide and pIII) [SEQ ID NO 106 phage (M13 phage displaying CQVRHSAQC)] |  | binds |  |
| CLSSNSSLC (not fully specified (bridges); cysteine pairing not given here; also: displayed on M13 phage pIII coat protein, Tested as whole phage; also called R3-C1; not shown: pIII coat protein of M13 filamentous bacteriophage (New England Biolabs CX7C library); junction between peptide and pIII) [SEQ ID NO 28 phage (M13 phage displaying CLSSNSSLC)] |  | binds |  |
| CQKHHNYLC (not fully specified (bridges); cysteine pairing not given here; also: displayed on M13 phage pIII coat protein, Disulfide-constrained heptapeptide flanked by cysteines, tested as whole phage; not shown: pIII coat protein of M13 filamentous bacteriophage (New England Biolabs CX7C library); junction between peptide and pIII) [R5-XC1 phage (M13 phage displaying CQKHHNYLC)] | binds |  | binding result [3]: binds; binding result [4]: binds |
